The values that follow come from article PMC11189427 (Scientific Reports, 2024).

“And” between values parts separate entries of the source, which are not always exact repeats. Equal values may be shown once.

The data set deals with the molecule itself. In words: cryo-EM structure.

B1: Hendra henipavirus nucleoprotein (natural protein)
chain: MSDIFDEAASFRSYQSKLGRDGRASAATATLTTKIRIFVPATNSPELRWELTLFALDVIRSPSAAESMKIGAAFTLISMYSERPGALIRSLLNDPDIEAVIIDVGSMLNGIPVMERRGDKAQEEMEGLMRILKTARESSKGKTPFVDSRAYGLRITDMSTLVSAVITIEAQIWILIAKAVTAPDTAEESETRRWAKYVQQKRVNPFFALTQQWLTEMRNLLSQSLSVRKFMVEILMEVKKGGSAKGRAVEIISDIGNYVEETGMAGFFATIRFGLETRYPALALNEFQSDLNTIKGLMLLYREIGPRAPYMVLLEESIQTKFAPGGYPLLWSFAMGVATTIDRSMGALNINRGYLEPMYFRLGQKSARHHAGGIDQNMANKLGLNSDQVAELAAAVQETSVGRQDNNMQAREAKFAAGGVLVGGGEQDIDEEEEPIEHSGRQSVTFKREMSMSSLADSVPSSSVSTSGGTRLTNSLLNLRSRLAAKAIKESTAQSSSERNPPNNRPQADSGRKDDQEPKPAQNDLDFVRADV
notes: copies: 28
As a reminder, the stoichiometry N is a count of units in the complex or per binding partner. B1: the “stoichiometry N” value is 14 protomers per ring and 28 protomers per double-ring assembly.
